Experimental data as given in article PMC12820725, “Ribosomal protein control of hematopoietic stem cell transformation through regulation of metabolism”.
Read-outs that look alike come from different tables or passages of the source.

Assays:
[1] = target: GST-Rpl22 (UniProt P67984 1-128); test: EMSA; 5 mM MgCl2, E. coli tRNA competitor; 37.5 mM HEPES pH 7.9, 75 mM NaCl, 5 mM MgCl2, 0.1 mg/ml BSA, 8% glycerol, 1 ug E. coli tRNA, 5 nM 32P-RNA; temperature not stated; settings: protein: recombinant; tags: GST; label: 5'-32P
[2] = target: GST-Rpl22 (UniProt P67984 1-128); test: as above

GCUCAGUGCGGUGCUACCGACCCGAGGUCAAG (ssRNA) [EBER2]
binding result [1]: no binding

AUCCUGCUGGAUGGAAUUCCAGCUAAUGUGAU (structured_RNA) [Alox12 BS1]
binding result [2]: no binding

GGUCCGUCCCGGGUACAAGUCCCGGGUGGUGA (structured_RNA) [EBER1]
binding result [1]: binds

ACCAGAGUGAUGAUAUUGUGAGGGGAGACCCA (ssRNA) [Alox12 NBS]
binding result [2]: no binding

AUUUCCUCACCAUGUGUGUUUUCACAUGCACU (structured_RNA) [Alox12 BS2]
binding result [2]: binds
